# B1: human ATG16L1 coiled-coil domain construct 3 (CCD3-FLAG-6His), residues M126-A207 (domain or fragment, UniProt Q676U5-1 126-207, looked up)
# chain: MNEAKIAECLQTISDLETECLDLRTKLCDLERANQTLKDEYDALQITFTALEGKLRKTTEENQELVTRWMAEKAQEANRLNA
# notes: human ATG16L1 isoform 1 (NP_110430.5, full length M1-Y607), coiled-coil domain, residues M126-A207; amplified from pCMV-FLAG-ATG16L1; Expressed as GST-CCD3-FLAG-6His with a TEV site between GST and the insert; Calculated molecular weight printed as 11.3 kDa; also called CCD3FH; minimal coiled-coil domain; source: E. coli Rosetta 2, purified (glutathione sepharose, on column TEV cleavage, HIC); …
# Target: the molecule itself
# Assay: native gel or EMSA; Native-PAGE, Novex 4-20% Tris-glycine native gel, 1 ug protein a lane, before and after freeze/thawing at -80 C
protein,measurement,value
B1,stoichiometry N,2

# Source: PMC3782427, “The N-Terminal Region of the Human Autophagy Protein ATG16L1 Contains a Domain That Folds into a Helical Structure Consistent with Formation of a Coiled-Coil” (PLoS ONE, 2013)
